{
  "source": "the nanobody polyreactivity screen of Harvey et al. (2022)",
  "data": [
    {"assay": "yeast display, Sf9 membrane polyspecificity reagent, FACS + sequencing; frameworks hold sequencing errors", "method_in_brief": "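Genes from sorted yeast were amplified by colony PCR, read by MiSeq 2 × 250 sequencing and filtered on CDR length. These cells carried a synthetic nanobody library in Saccharomyces cerevisiae BJ5465 and were sorted by FACS into low and high (top ~1%) gates on anti-HA and streptavidin fluorescence. Polyreactivity is labelled according to the gate of origin.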", "values": [
      {"sequence": "QVQLVESGGGLVQAGGSLRLSCAASGRILTYNAMGWYRQAPGKERELVATISARGSRTYYADSVKGRFTISRDNAKNTVYLQMNSLKPEDTAVYYCNAAVGYYSYSYYTKVGVDYWGQGTQVTVSS", "polyreactivity (PSR sort gate)": "high polyreactivity"},
      {"sequence": "QVQLVESGGGLVQAGGSLRLSCAASGRILVFYAMGGYRQAPGIERELVAAISKSVRPTYYADSVKGRFTISRDNAQNTVYLQMNSLKPEDTAVYYCNTRSASDLWPQYGYWGQGTQVTVSS", "polyreactivity (PSR sort gate)": "low polyreactivity"},
      {"sequence": "QVQLVESGGGLVQAGGSLRLSCAASGRILWSYPMGWYRQAPGKEREFVATINRSGGNTHYADSVKGRFTISRDNAKNTVYLQMYSLKPEDTAVYYCAALNLVPYGYQGLRYYYWGQGTQVTVSS", "polyreactivity (PSR sort gate)": "high polyreactivity"},
      {"sequence": "QVQLVESGGGLVQAGGSLRLSCAASGRILYAYTMGWYRQAPGKERELVATISRSGGNTYYADSVKGRFTISRDNAKNTVYLQMNSLKPEDTAVYYCAVGKYGTQRVKLYQYRYNYWGQGTQVTVSS", "polyreactivity (PSR sort gate)": "high polyreactivity"},
      {"sequence": "QVQLVESGGGLVQAGGSLRLSCAASGRILYGNAMGWYRQAPGKERELVAAIDTSGGSTYYADSVKGRFTISRDNAKNTVYLQMNSLKPEDTAVYYCAVRAYREFLPIVYKWWWERDHWGQGTQVTVSS", "polyreactivity (PSR sort gate)": "low polyreactivity"},
      {"sequence": "QVQLVESGGGLVQAGGSLRLSCAASGRILYGYAMGWYRQAPGKERELVASITWSGGSTYADSVKGRFTISRDNAKNTVYLQMNSLKPEDTAVYYCATRRGPKWQWLTYGYWGQGTQVTVSS", "polyreactivity (PSR sort gate)": "low polyreactivity"},
      {"sequence": "QVQLVESGGGLVQAGGSLRLSCAASGRILYHYAMGWYRQAPGKERELVAAITFSGDTTYYADSVKGRFTISRDNAKNTVYLQMNSLKPEDTAVYYCAADDYYLGYEYWGQGTQVTVSS", "polyreactivity (PSR sort gate)": "high polyreactivity"},
      {"sequence": "QVQLVESGGGLVQAGGSLRLSCAASGRILYRNAMGWYRQATGKERELVAAITTRGTSTYYADSVKGRFTISRDNAKNTVYLQMNSLKPEDTSVYYCAADSWFSYRGPLYYWGQGTKVTVSS", "polyreactivity (PSR sort gate)": "high polyreactivity"},
      {"sequence": "QVQLVESGGGLVQAGGSLRLSCAASGRILYRYAMGWYRQAPGKERELVAAITWRGGTTYYADSVKGRFTISRDNAKNTVYLQMNSLKPEYTAVYYCNADWWRTLESDFWGQGTQVTVSS", "polyreactivity (PSR sort gate)": "low polyreactivity"},
      {"sequence": "QVQLVESGGGLVQAGGSLRLSCAASGRILYSYAMGWYRQAPGKEREFVAAISRSGARTYYADYVKGRFTISRDNAKNTVYLQMNSLKPEDTAVYYCAADDFSTVEYDYWGQGTQVTVSS", "polyreactivity (PSR sort gate)": "low polyreactivity"},
      {"sequence": "QVQLVESGGGLVQAGGSLRLSCAASGRILYTYAMGWYRQAPGKERELVATISSGGGTNYADSVKGRFTISRDNAKNTVYLQMNSLKPEDSAVYYCAARYGYSRGPYYRSDYWGQGTQVTVSS", "polyreactivity (PSR sort gate)": "high polyreactivity"},
      {"sequence": "QVQLVESGGGLVQAGGSLRLSCAASGRILYYNVMVWYRQAPGKERELVASNTSVVSTNYADSVKGRFTISRDNAKNTVYLHMNSLKPEDTAVYYCAARYFSGSFSDEIWGMDYWGQGTQVTVSS", "polyreactivity (PSR sort gate)": "high polyreactivity"},
      {"sequence": "QVQLVESGGGLVQAGGSLRLSCAASGRIRFYARGWYRQAPGKEREFVASITRSGGSTYYADSVKGRFTISRDNAKYTVYLQMNSLKPEDTAVYYCAADDYFHDDYWGQGTQVTVSS", "polyreactivity (PSR sort gate)": "high polyreactivity"},
      {"sequence": "QVQLVESGGGLVQAGGSLRLSCAASGRIRNAMGWYRQAPGKERELVAGITWSGGRTYYADSVKGRFTISRDNAKYTVYLQMNSLKPEDTAVYYCAAATPYRYNYWGQGTQVTVSS", "polyreactivity (PSR sort gate)": "high polyreactivity"},
      {"sequence": "QVQLVESGGGLVQAGGSLRLSCAASGRIRVQNDMGWYRQAPGKERELVAAIRSDGSPSYSDSVKGRFTISRDNAKNTVYLQMNSLKPEDTAVYYCAARIDWTGGEYDYWGQGTQVTVSS", "polyreactivity (PSR sort gate)": "low polyreactivity"},
      {"sequence": "QVQLVESGGGLVQAGGSLRLSCAASGRISAYNAMGWYRQAPGKERELVAGISTRTGSTYYADSVKGRFTISRDNAKNTVYLQMNSLKPEDTAVYYGAAYFWGVYFFGMDYWGQGTQVTVSS", "polyreactivity (PSR sort gate)": "low polyreactivity"},
      {"sequence": "QVQLVESGGGLVQAGGSLRLSCAASGRISDVYVMGWYRQAPGKERELVAAITWSGGDTYYADSVKGRFTISRDNAKNTVYLQMNSLNPEDTAVYYCNADTGKWGGNGWYEFDYWGQGTQVTVSS", "polyreactivity (PSR sort gate)": "low polyreactivity"},
      {"sequence": "QVQLVESGGGLVQAGGSLRLSCAASGRISFINAMGWYRQAPGKEREFVAGITTDGGSTYYADSVKGRFTISRDNAKNTVYLQMNSLKPEDTAVYYCAAEGSVWYVYWGDIYDYWGQGTQVTVSS", "polyreactivity (PSR sort gate)": "low polyreactivity"},
      {"sequence": "QVQLVESGGGLVQAGGSLRLSCAASGRISLSNAMGWYRQAPGKEREFVAAITKRSDRTYYADSVKGRFTISRDNAKNTVYLQMNSLKPEDRAVYYCAAKPLFGTRDDYWGQGTQVTVSS", "polyreactivity (PSR sort gate)": "low polyreactivity"},
      {"sequence": "QVQLVESGGGLVQAGGSLRLSCAASGRISLSNAMGWYRQAPGKEREFVAAITKRSDRTYYADSVKGRFTISRDNAKNTVYLQMNSLKPEDTAVYYCAAKPLFGTRDEYWGQGTQVTVSS", "polyreactivity (PSR sort gate)": "low polyreactivity"},
      {"sequence": "QVQLVESGGGLVQAGGSLRLSCAASGRISPNNAMGWYIPAPGKERELVAAITASGGTTYYADSVKGRFTISRDNAKYTVYLQMNSLKPEDSAVYYCAAAVWYRGWYRYDYWGQGTQVTVSS", "polyreactivity (PSR sort gate)": "low polyreactivity"},
      {"sequence": "QVQLVESGGGLVQAGGSLRLSCAASGRISQGYAMGWYRQAPGKERELVPGISRSGGSTYYADSVKGRFTISPDNAKNTVYLQMHSLKPEDTAVYYCAAQSWYGFPNYYWGQGSQVTVSS", "polyreactivity (PSR sort gate)": "high polyreactivity"},
      {"sequence": "QVQLVESGGGLVQAGGSLRLSCAASGRISQSNAMGWYRQAPGKERELVAAISWRGGSTYYADSVKGRFTISRDNAKNTVYLQMNSLKPEDTAVYYCAVRGKYDRHYYWGQGTQVTVSS", "polyreactivity (PSR sort gate)": "high polyreactivity"},
      {"sequence": "QVQLVESGGGLVQAGGSLRLSCAASGRISRLNAMGWYRQAPGKERELVATISGRGGGTYYADSVKGRFTISRDNAKNTVYLQMNSLKPEDTAVYYCNRRWFTRYDYWGQGTQVTVSS", "polyreactivity (PSR sort gate)": "high polyreactivity"},
      {"sequence": "QVQLVESGGGLVQAGGSLRLSCAASGRISRTNAMGWYRQAPGKERELVATITRGGNTNYADSVKGRFTISRDNAKNTVYLQMNSLKPEDTAVYYCAALGRYLRTYRGYVWQFDSWGQGTQVTVSS", "polyreactivity (PSR sort gate)": "high polyreactivity"},
      {"sequence": "QVQLVESGGGLVQAGGSLRLSCAASGRISSYYAMGWYRQAPGKEREFVAAITRSSGSTYYADSVKGRFTISRDNAKNTVYLQMNSLKPEDTAVYYCAADYYWTTFSRFDYWGQGTQVTVSS", "polyreactivity (PSR sort gate)": "low polyreactivity"},
      {"sequence": "QVQLVESGGGLVQAGGSLRLSCAASGRISVNYAMGWYRQAPGKERELVAGITSRGGSTYYADSVKGRFTISRDNAKNTVYLQMNSLKPEDTAVYYCAARWGGLWYYYWGQGTQVTVSS", "polyreactivity (PSR sort gate)": "high polyreactivity"},
      {"sequence": "QVQLVESGGGLVQAGGSLRLSCAASGRISVYYAMGWYRQGPGKERELVAAISWRGSTYYADSVKGRFTISRDYAKNTVYIQMNSQKPEDTAVYNSAARSTGYYGRFYYWGQGTQVTVSS", "polyreactivity (PSR sort gate)": "high polyreactivity"},
      {"sequence": "QVQLVESGGGLVQAGGSLRLSCAASGRITYYAMGWYRQAPGKERELVAVISWSGSSTNYADSVKGRFTISRDNAKNTVYLQMNSLKPEDTAVYFCAAENAVTGTDGEYYYWGQGTQVTVSS", "polyreactivity (PSR sort gate)": "high polyreactivity"},
      {"sequence": "QVQLVESGGGLVQAGGSLRLSCAASGRIVARNAMRWYSQAPGKERELVGAITYSGGSTYYADSVKGRFTISRDNAKNTVYLPMISLKPEDTAVYYCAAETSKRGRRYYYWGQGTQVTVSS", "polyreactivity (PSR sort gate)": "high polyreactivity"},
      {"sequence": "QVQLVESGGGLVQAGGSLRLSCAASGRIVGINVMGWYRQAPGKERELVAAISYRTGSTYYADSVKGRFTISRDNAKNTVYLQMNSLKPEDTAVYYCDAQRRIRTAWYDYWGQGTQVTVSS", "polyreactivity (PSR sort gate)": "high polyreactivity"},
      {"sequence": "QVQLVESGGGLVQAGGSLRLSCAASGRIVNFYAMGWYRQAPGKEREFVAAISWSGGSTSYADSVKGRFTISRDTAKKTDYLQMNSLKPEDTAVSYCAVRWSSRSRRYNYWGQGTQVTVSS", "polyreactivity (PSR sort gate)": "high polyreactivity"},
      {"sequence": "QVQLVESGGGLVQAGGSLRLSCAASGRIVNYYAMGWYRQAPGKERELVAAINSGGSTDYADSVKGRFTISRDNAKNTVYLQMNSLKPEDTAVYYCNAEKTYLYTDIPGYARFGYWGQGTQVTVSS", "polyreactivity (PSR sort gate)": "high polyreactivity"},
      {"sequence": "QVQLVESGGGLVQAGGSLRLSCAASGRIVRNAMGWYRPAPGKEWELVAAITRSGGSTYYADSVKGRFTISRDNAKKTVYLQMNSLKPEDTAVYYCAARHYRSRDGYSGQGTQVTVSS", "polyreactivity (PSR sort gate)": "high polyreactivity"},
      {"sequence": "QVQLVESGGGLVQAGGSLRLSCAASGRIVRNAMGWYRQAPGKERELVAAISRSGGSTYDADSVKGRFTISRDNAKNTVYLQMNSLKPEDTAVYYCAKRSTSQSLQVEYWGQGTQVTVSS", "polyreactivity (PSR sort gate)": "high polyreactivity"},
      {"sequence": "QVQLVESGGGLVQAGGSLRLSCAASGRIVTSNAMGWYRQAPGKERELVAVISRRGGSTYYADYVKGRFTITRDNAKNTVYLQMNSVKPEDTAVYYCARRPYSYTRYEYWGQGTQVTVSS", "polyreactivity (PSR sort gate)": "low polyreactivity"},
      {"sequence": "QVQLVESGGGLVQAGGSLRLSCAASGRIVWGYAMGWYTPAPGKERDLVATITRGGSTNYADSVKGRFTISRDNAKNTVYLQMNSLKPEDTAVYYCARDWGKSEYDYWGQGTQVTVSS", "polyreactivity (PSR sort gate)": "high polyreactivity"},
      {"sequence": "QVQLVESGGGLVQAGGSLRLSCAASGRIVYRYAMGWYRQAPGKERELVAAISSGGSTYYADSVKGRFTISRDNAKNTVYLQMNSLKPEDTAVYYCAATWGRGTYYLYYYWGQGTQVTGSS", "polyreactivity (PSR sort gate)": "high polyreactivity"},
      {"sequence": "QVQLVESGGGLVQAGGSLRLSCAASGRIWSRYAMGWYRQAPGKERELVAAITQSGTSTYYADSVKGRFTFSRDNAKNTVYLQMNSLKPEDTAVYYCNAYRQYRYDYWGQGTQVTVSS", "polyreactivity (PSR sort gate)": "low polyreactivity"},
      {"sequence": "QVQLVESGGGLVQAGGSLRLSCAASGRIYARNAMGWYIQAPGKERELVAAITRGGSTYYADSVKGRFTISRDNAKNTVYLQMNSLKPEDTAVYYCAASYRGSTYKYYYWGQGTQVTVSS", "polyreactivity (PSR sort gate)": "high polyreactivity"},
      {"sequence": "QVQLVESGGGLVQAGGSLRLSCAASGRIYGINVMGRYRQAPGKEMELVAAISYRTGSTYYADSVKGRFTISRDNAKNTVYLQMNSLKPEDTEVYYCAVRRPSSYSYGEDYWGQGTQVTVSS", "polyreactivity (PSR sort gate)": "high polyreactivity"}
    ]}
  ]
}
